T1: wild-type human CCR3 (endogenous, on native human eosinophils) (human, UniProt P51677 1-355)
T1 construct: This is the endogenous receptor on human eosinophils; also called eotaxin receptor; wild-type intact receptor in eosinophils
T1 sequence: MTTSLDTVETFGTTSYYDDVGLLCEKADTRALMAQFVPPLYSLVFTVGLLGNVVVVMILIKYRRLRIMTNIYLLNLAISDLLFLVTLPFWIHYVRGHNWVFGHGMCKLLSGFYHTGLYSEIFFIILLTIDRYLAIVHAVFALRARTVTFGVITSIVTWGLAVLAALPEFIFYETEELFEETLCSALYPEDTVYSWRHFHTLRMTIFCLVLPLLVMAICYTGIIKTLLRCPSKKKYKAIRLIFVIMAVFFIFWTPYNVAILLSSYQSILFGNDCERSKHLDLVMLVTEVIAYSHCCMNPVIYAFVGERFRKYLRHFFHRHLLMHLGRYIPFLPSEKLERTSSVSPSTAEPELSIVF

B1: chimeric CCR3/2 receptor (human CCR3 residues 1-310 joined to the cytoplasmic tail of human CCR2 isoform B), expressed on CHO-K1 cells (receptor)
chain: MTTSLDTVETFGTTSYYDDVGLLCEKADTRALMAQFVPPLYSLVFTVGLLGNVVVVMILIKYRRLRIMTNIYLLNLAISDLLFLVTLPFWIHYVRGHNWVFGHGMCKLLSGFYHTGLYSEIFFIILLTIDRYLAIVHAVFALRARTVTFGVITSIVTWGLAVLAALPEFIFYETEELFEETLCSALYPEDTVYSWRHFHTLRMTIFCLVLPLLVMAICYTGIIKTLLRCPSKKKYKAIRLIFVIMAVFFIFWTPYNVAILLSSYQSILFGNDCERSKHLDLVMLVTEVIAYSHCCMNPVIYAFVGERFRKYLSVFFRKHITKRFCKQCPVFYRETVDGVTSTNTPSTGEQEVSAGL
notes: Expressed from the pFLAG-CMV-3 vector in CHO-K1 cells; also called CCR3/2 chimera; CHO CCR3/2 clone 5.5
B2: human eotaxin (125I-labeled human eotaxin, Perkin Elmer #NEX-314; unlabeled recombinant human eotaxin, R&D Systems #320-EO/CF) (ligand)
chain: not shown
modifications: 125I label (position not given) on the tracer form
notes: also called labeled (hot) eotaxin

Key:
[1] = molecular target: B2; assay: 125I-eotaxin binding to CHO CCR3/2 clone 5.5 cells, filter plate assay (FIG. 1)
Method: (§1) Invest. 97:604). In order to compare the ability of cells expressing chimeric human CCR3/2 molecules to that of cells expressing endogenous human CCR3 to bind eotaxin, a binding assay was performed. Depending upon the questions being asked, the cells in question were either human or mouse eosinophils, CHO-K1 cells expressing recombinant CCR3 or CCR3/2, parental CHO-K1 cells or other cell types. All assay steps were conducted at room temperature. Multiscreen assay plates (#MABVN1250, Millipore Inc., Marlborough, Mass.) were incubated with 100 μl/well of blocking solution (7.5 μg/ml protamine in PBS) to block non-specific binding. After 20 minutes, the blocking solution was removed and replaced with 100 μl of binding buffer, (RPMI 1640 (Life Technologies, Grand Island, N.Y.) containing 0.1% bovine serum albumin and 20 mM HEPES buffer) and incubated for at least an additional 10 minutes.
(§2) When ready to use plate(s), the following procedure was employed. […]
(§3) Binding data were analyzed using Microsoft EXCEL and then graphed using […] […]

[2] = molecular target: T1, wild-type human CCR3 (endogenous, on …); assay: 125I-eotaxin binding to cells, filter plate assay
Method: as §1, §2, §3

Binder	binding result [1]	binding result [2]
B1	binds	
B2		binds
